From patent US20260263521A1 (AIMED BIO, published 2026)
Where a chain is given by its changes, count along the chain named. Where “and” joins values, the source holds several entries; their conditions need not be identical. Identical values can stand only once.

Key:
[1] = target: T1, human CD200RLa (Sino Biological, 11620-H08H) recombinant protein (human, UniProt Q6Q8B3 24-239); assay: ELISA, plate-bound human CD200RLa (2 ug/mL), antibody 0.0192-300 nM, O.D 450 nm; panel 'recombinant human CD200RLa'
T1 construct: Bought; construct not described
T1 sequence (looked up): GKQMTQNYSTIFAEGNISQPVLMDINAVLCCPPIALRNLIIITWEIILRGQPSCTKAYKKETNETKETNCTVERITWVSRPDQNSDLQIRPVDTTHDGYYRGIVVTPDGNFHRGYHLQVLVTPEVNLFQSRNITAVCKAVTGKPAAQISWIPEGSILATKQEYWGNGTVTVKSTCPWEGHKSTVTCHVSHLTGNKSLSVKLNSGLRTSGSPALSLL
How it was run: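 Plates coated overnight (16 h, 4° C) with human or cynomolgus CD200RLa recombinant protein, blocked with 3% skim milk; bound antibody detected by TMB colour development, reaction stopped before reading.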

[2] = target: T2, human CD200R1 expressed on cells (Jurkat-CD200R1, U937-CD200R1, HH cells) (human, UniProt Q8TD46 25-348); assay: flow cytometry, HH cells; drawn table
T2 construct: whole, on cells; also called HH (CRL-2105); cell surface-expressed CD200R1
T2 sequence (looked up): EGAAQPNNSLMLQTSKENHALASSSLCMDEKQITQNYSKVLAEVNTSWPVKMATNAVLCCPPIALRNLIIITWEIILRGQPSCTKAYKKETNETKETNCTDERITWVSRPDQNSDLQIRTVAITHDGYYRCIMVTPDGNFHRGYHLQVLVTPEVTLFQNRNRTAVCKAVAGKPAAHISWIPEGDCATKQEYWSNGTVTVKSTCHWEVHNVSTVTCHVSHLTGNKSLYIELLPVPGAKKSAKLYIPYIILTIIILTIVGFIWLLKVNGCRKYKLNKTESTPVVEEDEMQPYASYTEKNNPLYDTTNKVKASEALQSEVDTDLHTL

[3] = target: T3, human CD200R1 recombinant protein (construct not stated) (human, UniProt Q8TD46 27-266, limits assumed); assay: ELISA on human CD200R1, O.D 450 nm, 0.0192-300 nM; panel 'P001_CD200R1 human 1'
T3 sequence (looked up): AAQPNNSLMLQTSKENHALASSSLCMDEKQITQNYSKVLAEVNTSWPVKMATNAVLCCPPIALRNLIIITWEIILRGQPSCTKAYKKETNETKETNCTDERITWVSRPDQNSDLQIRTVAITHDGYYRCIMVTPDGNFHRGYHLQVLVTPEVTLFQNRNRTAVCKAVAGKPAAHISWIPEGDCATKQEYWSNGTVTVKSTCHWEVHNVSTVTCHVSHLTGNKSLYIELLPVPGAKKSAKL
Description: 96-well plates were coated with human CD200R1 (R&D systems, 3414-CD) and mouse CD200R1 protein (R&D systems, 2554-CD) at a concentration of 2 μg/mL at 4° C. for 16 hours and then were blocked with 3% skim milk.
Color was developed with a TMB substrate solution (Thermo Scientific, 34029, 1-Step™ TMB-ELISA Ultra Substrate Solution). The color reaction was stopped with stop solution (Invitrogen, SS04, ELISA Stop Solution). The absorbance was measured at an optical density of 450 nm.
The secondary engineered antibodies were evaluated by ELISA in the same manner as in Examples described above.

[4] = target: T2, human CD200R1 expressed on cells …; assay: flow cytometry on Jurkat-CD200R1 and HH cells, 500 nM antibody in IgG1 form
Description: The cells were washed by centrifugation at 130 g for 5 minutes. The cells were seeded onto 96-well round-bottom plates (SPL, #34296) at a density of 1×10⁵ cells/well in Flow cytometry staining buffer (Invitrogen, #00-4222-26) or FACS buffer. […] After incubation for 1 hour at 4° C., the cells were treated with Alexa-647 Goat anti-human IgG (H+L) cross-adsorbed secondary antibody (Invitrogen, #A21445) and incubated at 4° C. for an additional 30 minutes. After washing twice with FACS buffer, flow cytometry analysis was performed using a Novocyte Flow cytometer (Agilent).

[5] = target: T2, human CD200R1 expressed on cells …; assay: flow cytometry, HH cells; drawn table, row EC50
Hybrid CD200R1 MH [6] = target: T4, Hybrid CD200R1 MH (mouse;human, UniProt Q9ES57;Q8TD46); assay: ELISA, plate-bound MH hybrid (1 ug/mL), antibody 0.0192-300 nM, O.D 450 nm; panel 'P001 MH domain-2)'
T4 construct: single domain; mouse D1 over human D2; also called MH hybrid domain; P001 MH domain
T4 sequence (hybrid extracellular part, looked up): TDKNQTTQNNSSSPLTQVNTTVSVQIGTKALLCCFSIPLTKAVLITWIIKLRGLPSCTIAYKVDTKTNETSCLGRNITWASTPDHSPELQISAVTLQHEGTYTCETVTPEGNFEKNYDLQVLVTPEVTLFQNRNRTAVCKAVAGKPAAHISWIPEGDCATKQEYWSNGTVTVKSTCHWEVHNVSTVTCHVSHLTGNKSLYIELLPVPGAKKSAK
Description: (§1) Recombinant proteins were produced from the extracellular Ig-like V-type domain and Ig-like C2-type domain of human CD200R1, each designed as human-mouse (HM hybrid domain) and mouse-human (MH hybrid domain) recombinant proteins. A 96-well plate was coated at a concentration of 1 μg/mL with each protein at 4° C. for 16 hours and blocked with 3% skim milk. […] After color development with TMB substrate solution (Thermo Scientific, 34029, 1-Step™ Ultra TMB-ELISA Substrate Solution), the color reaction was stopped with a stop solution (Invitrogen, SS04, ELISA Stop Solution), and the absorbance was measured at an O.D. of 450 nm.

[7] = target: T5, monkey CD200RLa (Sino Biological, 11576-C02H) recombinant protein (monkey (cyno), UniProt A0A2K5W6R0 30-246); assay: ELISA, plate-bound monkey CD200RLa (2 ug/mL), antibody 0.0192-300 nM, O.D 450 nm; panel 'recombinant cynomolgus CD200RLa/Fc'
T5 construct: Bought; construct not described; also called cyno CD200RLa
T5 sequence: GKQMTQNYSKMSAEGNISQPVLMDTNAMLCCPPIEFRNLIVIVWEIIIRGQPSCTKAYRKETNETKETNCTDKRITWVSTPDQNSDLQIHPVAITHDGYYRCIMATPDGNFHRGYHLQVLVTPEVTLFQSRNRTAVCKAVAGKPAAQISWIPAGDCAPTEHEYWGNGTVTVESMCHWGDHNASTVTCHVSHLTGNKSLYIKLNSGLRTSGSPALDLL
Description: 96-well plates were coated with human CD200RLa (Sino Biological, 11620-H08H) and monkey CD200RLa (Sino Biological, 11576-C02H) recombinant proteins at a concentration of 2 μg/mL at 4° C. for 16 hours, and blocked with 3% skim milk for 1 hour. […] Color was developed with a TMB substrate solution (Thermo Scientific, 34029, 1-Step™ Ultra TMB-ELISA Substrate Solution). The color reaction was stopped with stop solution (Invitrogen, SS04, ELISA Stop Solution).

[8] = target: T6, mouse CD200R1 protein (R&D systems, 2554-CD) (mouse, UniProt Q9ES57 26-238, limits assumed); assay: ELISA, plate-bound mouse CD200R1 (2 ug/mL), IgG 0.0192-300 nM, OD 450 nm; panel 'mouse CD200R1'
T6 construct: Bought; construct not described
T6 sequence (looked up): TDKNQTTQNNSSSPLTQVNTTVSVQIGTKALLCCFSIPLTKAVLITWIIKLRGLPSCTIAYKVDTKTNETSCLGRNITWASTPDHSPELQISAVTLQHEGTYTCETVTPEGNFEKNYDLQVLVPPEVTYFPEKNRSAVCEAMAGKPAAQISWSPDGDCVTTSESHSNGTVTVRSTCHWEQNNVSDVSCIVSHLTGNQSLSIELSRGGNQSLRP
How it was run: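 Wells coated with antigen at 2 μg/mL (4 °C, 16 h) and blocked with 3% skim milk before IgG addition. Bound antibody developed with TMB, reaction stopped, absorbance read at 450 nm.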

Hybrid CD200R1 MH [9] = target: T4, Hybrid CD200R1 MH; assay: ELISA, plate-bound MH hybrid (1 ug/mL), antibody 0.0192-300 nM, O.D 450 nm; panel 'P001 MH domain-4)'
Description: as §1

[10] = target: T3, human CD200R1 recombinant protein …; assay: hybridoma ELISA on human CD200R1

B1: P001018 (huOX108.1) (antibody, V domains shown)
VH: QVQLVQSGAEVKKPGASVKVSCKASGYTFTSYVMHWVRQAPGQGLEWMGYINPYNDDTNYNEKFKGRVTMTRDTSTSTVYMELSSLRSEDTAVYYCAREDYYGSRWGYWGQGTLVTVSS
VL: DIVLTQSPASLAVSPGQRATITCRASKSVSTSGYSYMHWYQQKPGQPPKLLIYLASNLESGVPARFSGSGSGTDFTLTINPVEANDTANYYCQHSRELLTFGQGTKVEIK
notes: also called humanized antibody P001018
- binding result [1]: no binding (tested: 300 nM)
- Geo mean (%) at 0.05 nM [2]: 2.1%
- Geo mean (%) at 0.19 nM [2]: 6.1%
- Geo mean (%) at 0.78 nM [2]: 15.8%
- Geo mean (%) at 3.125 nM [2]: 35.2%
- Geo mean (%) at 12.5 nM [2]: 65.7%
- Geo mean (%) at 50 nM [2]: 79.7%
- Geo mean (%) at 200 nM [2]: 96.9%
- Geo mean (%) at 800 nM [2]: 100%
- EC50 (read off the curve) [3]: ~2 nM and ~5 nM
- MFI normalized to P001017 (chimeric OX108), % [4]: > 50%
- EC50 [5]: 6.64 nM

B2: P001008 (IgG) (antibody, V domains shown)
VH: EVQLLESGGGLVQPGGSLRLSCAASGFTFSSYDMSWVRQAPGKGLEWVSWISHGGGSIYYADSVKGRFTISRDNSKNTLYLQMNSLRAEDTAVYYCARDAPALMHSLFDYWGQGTLVTVSS
VL: QSVLTQPPSASGTPGQRVTISCSGSSSNIGSNHVNWYQQLPGTAPKLLIYYDSQRPSGVPDRFSGSKSGTSASLAISGLRSEDEADYYCGSWDASLNGYVFGGGTKLTVL
- binding result [1]: no binding (tested: 300 nM)
- binding result (Hybrid CD200R1 MH [6]): no binding (tested: 300 nM)
- binding result [7]: no binding (tested: 300 nM)
- MFI normalized to P001017 (chimeric OX108), % [4]: > 50%
- binding result [8]: no binding (tested: 300 nM)

B3: P001010 (IgG) (antibody, V domains shown)
VH: EVQLLESGGGLVQPGGSLRLSCAASGFTFSNYAMSWVRQAPGKGLEWVSSISPGGGSIYYADSVKGRFTISRDNSKNTLYLQMNSLRAEDTAVYYCARDPGQMFWPLFDYWGQGTLVTVSS
VL: B2 VL with S23T, H33N, N35S, Y51D, Q54H
- binding result [1]: no binding (tested: 300 nM)
- binding result (Hybrid CD200R1 MH [6]): no binding (tested: 300 nM)
- binding result [8]: no binding (tested: 300 nM)

B4: 1H10 (hybridoma clone) (antibody, V domains shown)
VH: QVQLQQPGAELVKPGTSVKLSCKASGYNFTSYWINWVKLRPGQGLEWIGDINPGSGSTNYNEKFRSKATLTVGTSSSTAYMQLSSLASEDSALYYCAREDYYGSRFFYWGQGTLVTVSA
VL: DVVMTQTPLSLPVSLGDQASISCRSSQSLVHSNGNTYLHWYLQKPGQSPKLLIYKVSNRFSGVPDRFSGSGSGTDFTLKISRVEAEDLGVYFCSQSTHVTFGAGTKLELK
- binding result (Hybrid CD200R1 MH [9]): no binding (tested: 300 nM)
- ELISA O.D. [10]: ≥ 1.5 O.D.

B5: 6A10 (hybridoma clone) (antibody, V domains shown)
VH: QLQQSGAELVRSGASVKLSCTASGFNIKDYYLHWIKQRPEQGLEWIGWIDPENGDTEYAPKFQGKATMTADTSSNTAYLQLISLTSEDAAVYYCFAGGSYWGQGTSVTVSS
VL: DIVMTQSPSSLSVSAGEKVTMSCKSSQSLLNSGNQKNYLAWYQQKPGQPPKLLIYGASTRESGVPDRFTGSGSGTDFTLTISSVQAEDLAVYYCQNDHSYPYTFGGGTKLEIK
- binding result (Hybrid CD200R1 MH [9]): no binding (tested: 300 nM)
- ELISA O.D. [10]: ≥ 1.5 O.D.
